Data: article PMC4080824, “Altered native stability is the dominant basis for susceptibility of α1-antitrypsin mutants to polymerization” (Biochemical Journal, 2014)
Substitutions are numbered along the chain they refer to. In names and notes the source's numbering stands. Values belong to the molecule of their own block, whether it stands above or below them.

What was measured:
[1] = target: bovine α-chymotrypsin (bovine); experiment: stoichiometry of inhibition by titration of enzyme activity; inhibitor incubated with 0.5 μM bovine α-chymotrypsin for 30 min at room temperature (21°C) in 20 mM Tris/HCl, 0.1 M NaCl, 0.1% PEG 8000, 10 mM CaCl2 pH 8.0; residual activity on N-succinyl-Ala-Ala-Pro-Phe-p-nitroanilide
[2] = target: bovine α-chymotrypsin (bovine); experiment: stoichiometry of inhibition by titration of enzyme activity; as the stoichiometry of inhibition assay, protein treated with 100 mM 2-mercaptoethanol (reduced)
[3] = target: the molecule itself; experiment: FRET or BRET; mutant series; 0.2 mg/ml protein, 4 μM Atto550–Ni-NTA and 4 μM Atto647N–Ni-NTA on the His6 tag, 10 mM NaH2PO4/Na2HPO4, 100 mM NaCl pH 7.4; heat-induced polymerization at 55°C; time to half-maximal signal
[4] = target: the molecule itself; experiment: FRET or BRET; mutant series; 0.2 mg/ml protein, 4 μM Atto550–Ni-NTA and 4 μM Atto647N–Ni-NTA on the His6 tag, 10 mM NaH2PO4/Na2HPO4, 100 mM NaCl pH 7.4; heat-induced polymerization at 60°C; time to half-maximal signal
[5] = target: the molecule itself; experiment: FRET or BRET; mutant series; 0.2 mg/ml protein, 4 μM Atto550–Ni-NTA and 4 μM Atto647N–Ni-NTA on the His6 tag, 10 mM NaH2PO4/Na2HPO4, 100 mM NaCl pH 7.4; heat-induced polymerization at 65°C; time to half-maximal signal

- SI (stoichiometry of inhibition) [1]: 3.9
Molecule: α1-antitrypsin C232S K331V (from UniProt P01009 26-418) (natural protein)

- SI (stoichiometry of inhibition) [1]: 1
Molecule: α1-antitrypsin C232S K335A (from UniProt P01009 26-418) (natural protein)

- SI (stoichiometry of inhibition) [2]: 1
- SI (stoichiometry of inhibition) [1]: 1
Molecule: α1-antitrypsin C232S S292C/T339C (292–339) (from UniProt P01009 26-418) (natural protein)

- SI (stoichiometry of inhibition) [2]: 1
- SI (stoichiometry of inhibition) [1]: 1
Molecule: α1-antitrypsin C232S S283C/P361C (283–361) (from UniProt P01009 26-418) (natural protein)

- SI (stoichiometry of inhibition) [1]: 8.5
Molecule: α1-antitrypsin C232S K168C/F189C (168–189) (from UniProt P01009 26-418) (natural protein)

- SI (stoichiometry of inhibition) [1]: 1.1
Molecule: α1-antitrypsin C232S (AT_(C232S)) (from UniProt P01009 26-418) (natural protein)

The next lines start with the molecule.

Molecule: α1-antitrypsin C232S K191C/T339C (191–339) (from UniProt P01009 26-418) (natural protein)
- SI (stoichiometry of inhibition) [2]: 1

Molecule: α1-antitrypsin C232S E162C/V170C (162–170) (from UniProt P01009 26-418) (natural protein)
- SI (stoichiometry of inhibition) [2]: 1
- SI (stoichiometry of inhibition) [1]: 1

B1: α1-antitrypsin C232S E162C/V170C (162–170) (natural protein)
chain: DPQGDAAQKTDTSHHDQDHPTFNKITPNLAEFAFSLYRQLAHQSNSTNIFFSPVSIATAFAMLSLGTKADTHDEILEGLNFNLTEIPEAQIHEGFQELLRTLNQPDSQLQLTTGNGLFLSEGLKLVDKFLEDVKKLYHSEAFTVNFGDTEEAKKQINDYVCKGTQGKICDLVKELDRDTVFALVNYIFFKGKWERPFEVKDTEEEDFHVDQVTTVKVPMMKRLGMFNIQHSKKLSSWVLLMKYLGNATAIFFLPDEGKLQHLENELTHDIITKFLENEDRRSASLHLPKLSITGTYDLKSVLGQLGITKVFSNGADLSGVTEEAPLKLSKAVHKAVLTIDEKGTEAAGAMFLEAIPMSIPPEVKFNKPFVFLMIEQNTKSPLFMGKVVNPTQK
modifications: disulfide bond between C162 and C170 (predominantly in the disulfide-bonded form, >90%); reduced where treated with 100 mM 2-mercaptoethanol
notes: α1-antitrypsin, wild-type (M) ORF on the C232S background; Same construct as m3 with the stated changes; source: E. coli SG13009/pREP4 (pQE-30) or BL21(DE3) (pQE-81L), purified; not shown: His6, N-terminal, kept
- polymerization half-time (t0.5) [3]: 3930 s
- polymerization half-time (t0.5) [4]: 941 s
- polymerization half-time (t0.5) [5]: 226 s

B2: α1-antitrypsin C232S S292C/T339C (292–339) (natural protein)
chain: B1 chain with C161E, C169V, S291C, T338C
modifications: disulfide bond between C292 and C339 (predominantly in the disulfide-bonded form, >90%); reduced where treated with 100 mM 2-mercaptoethanol
notes: as for B1
- polymerization half-time (t0.5) [3]: 2290 s
- polymerization half-time (t0.5) [4]: 307 s
- polymerization half-time (t0.5) [5]: 51 s

B3: α1-antitrypsin C232S K168C/F189C (168–189) (natural protein)
chain: B1 chain with C161E, K167C, C169V, F188C
modifications: disulfide bond between C168 and C189 (predominantly in the disulfide-bonded form, >90%); reduced where treated with 100 mM 2-mercaptoethanol
notes: as for B1
- polymerization half-time (t0.5) [3]: 21900 s
- polymerization half-time (t0.5) [4]: 8870 s
- polymerization half-time (t0.5) [5]: 1010 s

B4: α1-antitrypsin C232S S283C/P361C (283–361) (natural protein)
chain: B1 chain with C161E, C169V, S282C, P360C
modifications: disulfide bond between C283 and C361 (predominantly in the disulfide-bonded form, >90%); reduced where treated with 100 mM 2-mercaptoethanol
notes: as for B1
- polymerization half-time (t0.5) [3]: 8970 s
- polymerization half-time (t0.5) [4]: 1430 s
- polymerization half-time (t0.5) [5]: 37 s
